Results: the supplement of paper PMC10126150
± gives the standard deviation of the averaged measurements.

test system: ATP; assay: switch fluorescence ratio, 500 uM ATP over buffer (Cy3 cluster intensity, sum of 5 cycles each) (fold (ratio)); higher = stronger signal-on switching upon ATP binding; sequences stand for … in TCGTCGGCAGCGTCAGATGTGTATAAGAGACAGTTTTTTTTTTTTTTTTTTTTTTTTT…TC; conditions: aptamer strand: ATP DNA aptamer (quencher-CACCTGGGGGAGTATTGCGGAGGAAGG + anchor), 100 nM annealed; ATP concentration: 500 uM
Method in brief: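 For every switch-domain sequence, the fluorescence ratio is the mean of per-cluster values, each being summed target-cycle Cy3 intensity over summed buffer-cycle Cy3 intensity. Clusters outside 100-1000 RFU were excluded. On a modified Illumina MiSeq flow-cell, the Cy3-labelled switching-strand clusters were annealed to 100 nM quencher-labelled ATP aptamer, imaged in selection buffer and then after 15 min with 500 uM ATP at 22 °C. Five such cycles were run, with NaOH stripping and re-annealing between them.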
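Also: ATP exposure 15 min at 22 °C before imaging.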

Row | Sequence | switch fluorescence ratio
1 | GCTATGGTGG | 0.987 ± 0.021
2 | TTTGTTACGG | 0.978 ± 0.046
3 | CTTGTAACGG | 0.975 ± 0.01
4 | GCCGGTTAGA | 0.998 ± 0.03
5 | AAAATGAACG | 1.08 ± 0.047
6 | ACATTTAATT | 0.983 ± 0.013
7 | CATTTTTGTA | 0.986 ± 0.012
8 | TCGGCGTTGG | 1.03 ± 0.026
9 | TATTTTTTCG | 0.987 ± 0.027
10 | AGGAGTACGT | 0.988 ± 0.013
11 | CTCGGGACGG | 1.005 ± 0.01
12 | GATATCCGTT | 0.976 ± 0.016
13 | GGGCTGCCGA | 1.03 ± 0.021
14 | GCTACACAGG | 1.45 ± 0.016
15 | GGAAAAAATA | 1.001 ± 0.0072
16 | ATCCTTTGTG | 1.02 ± 0.053
17 | TTGGGGAGGA | 0.998 ± 0.044
18 | AGCGGTTTTC | 0.994 ± 0.033
19 | GCAAATGTGT | 0.969 ± 0.026
20 | GTTGGGGGAC | 1.09 ± 0.086
21 | TGAAATTTG | 1.01 ± 0.03
22 | TTTTGGACCC | 1.01 ± 0.035
23 | GAGGGATAAA | 1.003 ± 0.0018
24 | TACCTACATC | 1.26 ± 0.031
25 | GTGTAAATAG | 1.01 ± 0.025

Row | Sequence | switch fluorescence ratio
26 | TTCGGTTGGT | 1.01 ± 0.029
27 | GAGAGGTG | 1.08 ± 0.021
28 | GGAGGCAAGG | 1.1 ± 0.054
29 | CTAATTAGAT | 1 ± 0.022
30 | CGGTGGCTGG | 0.972 ± 0.036
31 | ATGCATGGGG | 1.01 ± 0.017
32 | AAATAGATCG | 1.05 ± 0.066
33 | GTTTCGCCGT | 1.046 ± 0.0054
34 | CGTTTTTCGT | 0.9779 ± 0.0038
35 | ACGAGATTAT | 1.02 ± 0.014
36 | TTTCAGGGTT | 1.03 ± 0.072
37 | GTAGTGAGCT | 0.999 ± 0.05
38 | TTGTGCTGGT | 1 ± 0.033
39 | GGGTCGGGGA | 0.97587 ± 0.00076
40 | TGCATTGCTA | 1.04 ± 0.015
41 | ATACCAGGCG | 1.24 ± 0.069
42 | GTTGTTTGTA | 0.971 ± 0.021
43 | ACATTATAAT | 1.041 ± 0.0056
44 | AGCGTAGAGC | 1.03 ± 0.04
45 | TCACGATTGG | 1.02 ± 0.02
46 | GTCATTTAAG | 0.991 ± 0.019
47 | TGGGGATGGA | 0.998 ± 0.02
48 | CCTTATGCCA | 1.09 ± 0.061
49 | TGCCCTTGCG | 0.9827 ± 0.0046
50 | GTGGGGAAGG | 1.02 ± 0.054

Row | Sequence | switch fluorescence ratio
51 | TCCCCTTGCT | 1.03 ± 0.094
52 | CACTTTTTGG | 0.999 ± 0.003
53 | TTATTTGGA | 0.98 ± 0.04
54 | ATACCGGTTG | 1.02 ± 0.015
55 | GGTAACCTTT | 1.43 ± 0.58
56 | AGTTTACGAA | 1.01 ± 0.0069
57 | ATTTGCATAC | 2.62 ± 0.39
58 | CGTTTTTAAA | 1.02 ± 0.04
59 | CCTCTAAGTT | 1.27 ± 0.054
60 | GAAAGTGGTG | 0.9921 ± 0.0055
61 | ATTTCCGCAG | 3.82 ± 0.56
62 | GTTGCTGTTT | 1 ± 0.048
63 | ACATTTAGGC | 1.048 ± 0.0088
64 | TTAATTTAAA | 0.9752 ± 0.0031
65 | GGTATGTCGA | 0.954 ± 0.075
66 | GTTGTTATGT | 1.01 ± 0.015
67 | CTTTAGGTGG | 1.03 ± 0.037
68 | GAAATATGTG | 0.9885 ± 0.0022
69 | TCGTAGAGGA | 0.995 ± 0.032
70 | CGGGTGAGGT | 1 ± 0.027
71 | GGATCAGAAG | 1.004 ± 0.0056
72 | GGGGTCTAAA | 1.009 ± 0.0063
73 | AAGGTAATTT | 1.01 ± 0.03
74 | AATGAATTGG | 0.9691 ± 0.005
75 | GACGGGCCGG | 1.01 ± 0.03

Row | Sequence | switch fluorescence ratio
76 | GGGTCTGCGC | 1.03 ± 0.024
77 | TGGGGAGGAA | 1 ± 0.011
78 | CACAGCAGCG | 1.048 ± 0.0029
79 | CAGTTACGAC | 1.13 ± 0.055
80 | AGTAGGGTGC | 1.07 ± 0.12
81 | AAGTCCCCGG | 1.18 ± 0.015
82 | TCTTGTATTC | 0.9938 ± 0.0094
83 | GGGTTAAGCA | 0.9961 ± 0.0055
84 | ATAGACACGC | 1.034 ± 0.0078
85 | TTTAATTTGT | 1 ± 0.019
86 | GAGCTTCTGT | 1 ± 0.04
87 | GGGGGAAGTA | 1.041 ± 0.0027
88 | GGGGACAGGT | 1.03 ± 0.0057
89 | TTGGACCGTG | 0.973 ± 0.069
90 | TCAGCCGGGA | 1.08 ± 0.024
91 | CACTGGTTAA | 0.995 ± 0.013
92 | ACGATGGGAG | 1.02 ± 0.021
93 | GAGGAAGTTT | 1 ± 0.041
94 | GCAACCTGAG | 1.56 ± 0.14
95 | CGCTCAAGGG | 1.031 ± 0.0042
96 | GCTCCATGGG | 1.02 ± 0.046
97 | ATCAGGCATT | 1.03 ± 0.011
98 | GCAAAAATCT | 1.01 ± 0.046
99 | TCTTTGCAGC | 1.025 ± 0.0041
100 | GAGCATATCA | 1.006 ± 0.0028
